Measured values from patent publication US11198871B2, “Riboswitch-mediated regulatory control of gene expression in thermophilic bacteria” (priority 2019, dated 2021).
Like-named read-outs stand apart in the source and are kept apart here.

Test system: sfGFP
Assay type: cell-based, Geobacillus thermoglucosidasius
Conditions: for fold change (reduction) of maximal normalized fluorescence: 0.25 mM guanosine versus none; for maximal normalized fluorescence: mid-exponential growth, 55° C.
Method: To evaluate the T.s. riboswitches' regulatory activities, a thermophilic fluorescence reporter assay was used that included the use of super-folder green fluorescence protein (sfGFP) which is active in the aerobic thermophile, Geobacillus thermoglucosidasius (G.t.), at a growth temperature of 55° C. Both purine riboswitches from T.s. were inserted downstream of the pRp1S strong promoter respectively in plasmid pG1AK-sf such that the riboswitch controlled the expression of sfGFP once it was introduced into G.t. (see FIG. 2a and Table 1).
To trigger the regulatory response from the riboswitches, guanosine was used as the ligand as cells can import the compound and convert it into guanine enzymatically. […] As an additional control, a point mutation was introduced in the Tsac 2584 aptamer domain at position 74 (C74U). Position 74 is responsible for its interaction with guanine.
In an embodiment, and as depicted in FIG. 8, the normalized fluorescence of the cell culture is defined as: […]
To compare the normalized fluorescence between cultures growing with different ligand concentrations, the normalized fluorescence for each culture was averaged between the mid-log points where the OD was between 0.4 and 0.6.
G. thermoglucosidasius strains transformed with different plasmids were grown aerobically overnight in 5 ml TGP media (supplemental) with 12.5 μg/mL kanamycin at 55° C. and shaken at 200 rpm. The freshly grown overnight culture was used to inoculate 5 mL of fresh TGP media with kanamycin and incubated in the same condition for about 5 hrs when the cultures reached OD600 of about 1.0. This secondary growth culture was used to inoculate 5 ml of Defined Glucose Media (DG) with 250-fold dilution and was sub-aliquoted into a 96-well plate with 200 microliters per well where different concentrations of the effector ligand was added. The plate was incubated in a Greiner-Bio xxx plate reader and the OD600 and the fluorescence intensity (details of excitation and emission) was tracked for 24 hrs. To quantify the normalized fluorescence, the value of the raw fluorescence was taken when the cells were in mid-exponential phase (OD600 0.4-0.6) and divided by the optical density to normalize the fluorescence.

B1: Tsac 2588 (nucleic acid, listed as Thermoanaerobacterium saccharolyticum)
DNA: ATTGTGTCAGGACAAGTAAATAATAGCTCATATAATTCTGAGAATACGGCTCAGAAGTCTCTACCAGACAACCGTAAATTGTCTGACTATGAGTGAAAGTGTACCTGAGGGTTCCAGCCTTATTGTCCATGTGTAGAAAACAGTAAAGGCGTTCGGACCGAGCGGTACAGGCATTGTATTGCCACACCTGTGGGATAAAAGCCCGGGAGGATAGGTTTCACTCTATGTGTTGGAATCTATCATTCCGGGCTTGTTTATTTTTAAAATTCGTTTTTATTT
B1 was tested, and the “fold change (reduction) of maximal normalized fluorescence” value was roughly 2.5 fold, the maximal normalized fluorescence (0.25 mM guanosine) was 15±0.1 fluorescence units and the “fluorescence in comparison to the control pG1AK parental plasmid” value (with guanosine) was “about 30%”. It also gave a maximal normalized fluorescence (without guanosine) of 38±1 fluorescence units.

B2: Tsac 2584 (nucleic acid, listed as Thermoanaerobacterium saccharolyticum)
DNA: ATTGTGTCAGGACAAGTAAATAATAGCTCATATAATTCTGAGAATACGGCTCAGAAGTCTCTACCAGACAACCGTAAATTGTCTGACTATGAGTGAAAGTGTACCTGAGGGTTCCAGCCTTATTGTCCATGTGTAGAAAACAGTAAAGGCGTTCGGACCGAGCGGTACAGGCATTGTATTGCCACACCTGTGGGATAAAAGCCCGGGAGGATAGGTTTCACTCTATGTGTTGGAATCTATCATTCCGGGCTTGTTTATTTTTAAAATTCGTTTTTATTT
In the case of B2, the “fold change (reduction) of maximal normalized fluorescence” value is reported as roughly 7 fold, the maximal normalized fluorescence (0.25 mM guanosine) is reported as 2.8±0.1 fluorescence units and the “guanosine-dependent repression of sfGFP” value (guanosine added, result in words) is reported as “tight repression”. It also gave a maximal normalized fluorescence (without guanosine) of 20±2 fluorescence units.
